Measured values as given in publication PMC11565477 (FASEB journal : official publication of the Federation of …, 2021).
Where “and” joins values, the source holds several entries; their conditions need not be identical. Identical values can stand only once.

B1: purified HA-C1QL3 (pEB Multi Neo HA-C1ql3-IRES-GFP) (natural protein, mouse, UniProt Q9ESN4 21-255, looked up)
chain: HYEMLGTCRMVCDPYGGTKAPSTAATPDRGLMQSLPTFIQGPKGEAGRPGKAGPRGPPGEPGPPGPVGPPGEKGEPGRQGLPGPPGAPGLNAAGAISAATYSTVPKIAFYAGLKRQHEGYEVLKFDDVVTNLGNHYDPTTGKFTCSIPGIYFFTYHVLMRGGDGTSMWADLCKNNQVRASAIAQDADQNYDYASNSVVLHLEPGDEVYIKLDGGKAHGGNNNKYSTFSGFIIYAD
B2: purified NPTX1-flag-strep (pEB Multi Neo Nptx1-flag-TEV-strep-IRES-GFP, plasmid #4) (natural protein, mouse, UniProt Q62443 23-432, looked up)
chain: QDFGPTRFICTSVPVDADMCAASVAAGGAEELRSNVLQLRETVLQQKETILSQKETIRELTTKLGRCESQSTLDSGPGEARSGGGRKQPGSGKNTMGDLSRTPAAETLSQLGQTLQSLKTRLENLEQYSRLNSSSQTNSLKDLLQSKIDDLERQVLSRVNTLEEGKGGPKNDTEERAKIESALTSLHQRISELEKGQKDNRPGDKFQLTFPLRTNYMYAKVKKSLPEMYAFTVCMWLKSSAAPGVGTPFSYAVPGQANELVLIEWGNNPMEILINDKVAKLPFVINDGKWHHICVTWTTRDGVWEAYQDGTQGGNGENLAPYHPIKPQGVLVLGQEQDTLGGGFDATQAFVGELAHFNIWDRKLTPGEVYNLATCSSKALSGNVIAWAESQIEIFGGATKWTFEACRQIN
B3: purified NPTX1-flag (pEB Multi Neo Nptx1-flag-IRES-GFP, plasmid #3) (natural protein, mouse, UniProt Q62443 23-432, looked up)
chain: B2 chain

Key:
native gel or EMSA = biological target: the molecule itself; assay: native gel or EMSA
[1] = biological target: B3; assay: immunostaining of cells or tissue
SEC = biological target: the molecule itself; assay: SEC

Binder | stoichiometry N (native gel or EMSA) | binding result [1] | stoichiometry N (SEC)
B1 | 6 and 18 | binds | 
B2 |  |  | ~15
B3 | 15 |  | 
